According to article PMC4256270, “In Vivo Occupancy of Mitochondrial Single-Stranded DNA Binding Protein Supports the Strand Displacement Mode of DNA Replication”:

Target: T1, mtSSB (mitochondrial single-stranded DNA-binding protein) (human, UniProt Q04837 17-148)
T1 sequence: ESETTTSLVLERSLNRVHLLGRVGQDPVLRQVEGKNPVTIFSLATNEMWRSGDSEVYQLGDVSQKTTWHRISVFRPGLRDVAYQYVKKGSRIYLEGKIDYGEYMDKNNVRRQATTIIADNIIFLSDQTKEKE
Assay: EMSA; 25 fmol DNA in 15 ul; no free template at tetramer:DNA 1:1 or higher; 10 mM Mg2+, 2 mM ATP; 20 mM Tris-HCl pH 8.0, 10 mM MgCl2, 100 ug/ml BSA, 1 mM DTT, 2 mM ATP, 10% glycerol, 15 min at room temperature; 10% native PAGE in 1x TBE
Settings: protein: recombinant; chain copies: 4; label: 5'-32P; single strand, unstructured

AACACCAGCAGAACTTTTTTAACAAGCAACACACAGAAGACA (ssDNA) [6-dT (no predicted secondary structure; no stem)]
binding result: binds
